Assay results published in patent US20250170182A1.

Key:
[1] = target: human wild type FLT3 (human) (UniProt P36888); test: cell-based or functional assay
[2] = target: human wild type CD123 (human) (UniProt P26951); test: cell-based or functional assay
Sequence of UniProt P26951 (P26951 19-378 limits assumed): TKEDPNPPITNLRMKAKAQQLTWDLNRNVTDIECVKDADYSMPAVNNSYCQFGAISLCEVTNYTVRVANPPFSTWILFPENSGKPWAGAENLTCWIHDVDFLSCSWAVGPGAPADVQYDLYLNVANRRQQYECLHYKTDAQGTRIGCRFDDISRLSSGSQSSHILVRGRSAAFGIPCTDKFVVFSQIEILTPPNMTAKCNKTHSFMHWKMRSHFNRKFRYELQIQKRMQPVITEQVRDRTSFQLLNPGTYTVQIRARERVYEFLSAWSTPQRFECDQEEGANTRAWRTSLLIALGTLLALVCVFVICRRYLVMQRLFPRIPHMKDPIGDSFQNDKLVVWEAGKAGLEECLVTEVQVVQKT

Substance	surviving K562 target cells at E:T=10 relative to E:T=0 [1]	surviving K562 target cells at E:T=10 relative to E:T=0 [2]
4G8-CAR (IgG4 hinge, CD28 TM, CD28z, CD3z) targeting FLT3 domain 4	< 2%	
CSL362-CAR (CD8a hinge, CD28 TM, CD28z, CD3z) targeting CD123 N-terminal domain		< 2%
